Reference: US8609370

Experiments:
[1] = target: rhGM-CSF expressed in NM-F9 cells cultured with 90 mM ManNAc (optimal sialylation form of rhGM-CSF) (human) (UniProt P04141); assay: cell-based or functional assay
[2] = target: Leukine (commercial rhGM-CSF of Schering AG, expressed in yeast) (human) (UniProt P04141); assay: cell-based or functional assay

stimulation of TF-1 cell proliferation (BrdU-proliferation assay), blocking at 5 µg/ml antibody [1]: 60% | stimulation of TF-1 cell proliferation (BrdU-proliferation assay), blocking at 5 µg/ml antibody [2]: 60%
Substance: anti-human GM-CSF antibody BVD2-23 B6
